{"source": "patent EP4703380A1", "about": "“INTEGRIN-TARGETING ANTIBODIES AND USE THEREOF” (NIO BIOPHARMACEUTICALS. INC., priority 2023, dated 2024)", "molecules": {"B1": {"name": "PS4-vcMMAE: PS4 WT maxibody conjugated with vcMMAE (monomethyl auristatin E); average DAR 4.09 (conjugate)", "VH": "QVQLVQSGGGLVNPGGSLRLSCAASGFPFSDHYMSWIRQAPGKGLEWVSYISNRGYTIHYADFVKGRFTISRDNAENTLYLQMNSLRAEDTAVYYCARDRGTIDAFDLWGQGTMVTVSS", "VL": "QSALTQPASVSGSPGQSITIPCSGTSDDIGRYNYVSWYQQHPGKAPKLLIYDVTRRSSGVSSHFSGSKSGSTASLIISGLQADDEADYFCSSFTNNRTVVFGGGTKLTVL", "modifications": "left off: things letters cannot carry; another chain or arm of the molecule; a dimerising Fc or GST; small tags and cut ends"}}, "key": {"[1]": {"test": "Real-time thermal stability (SYPRO Orange)", "type": "physicochemical", "conditions": "2 µM sample, 10.0°C to 95°C", "method": "The method and principle of the experiment were as follows. As the temperature increases, the folded protein denatures, exposing hydrophobic regions, which bind to the SYPRO Orange detection dye, resulting in fluorescence. The point at 1/2 RFUmax is designated as the melting point (Tm). 22.5 µL of the assay sample and 2.5 µL of 50x SYPRO stock solution were added to a 96-well PCR plate (VOLO Semi-Skirted PCR Plate) so that the final concentration of the sample used in the experiment was 2 µM, and the fluorescence was measured using Quantstudio Real-Time PCR (Thermo Fisher scientific) while increasing the temperature by 0.5°C per 10 s from 10.0°C to 95°C. Each sample was tested three times. The fluorescence value of the antibody buffer was set as the background and subtracted, and the value with the greatest slope in the […] of the fluorescence value (dTRFU) was analyzed as the Tm of the corresponding protein."}, "[2]": {"test_system": "BT20", "test": "AlamarBlue cell growth inhibition, BT20", "type": "cell-based", "conditions": "TNBC, BT20, 4 days", "method": "(§1) First, an appropriate number of cells (3x10^3 to 1x10^4 cells) for each cancer cell line were dispensed into each well of a 96-well plate and cultured for 24 hours at 37°C, 5% CO2, and then the medium was replaced with fresh growth medium. Then, sequentially diluted antibody-drug conjugates were added to each well, and the cells were cultured for 4 days under 37°C, 5% CO2 conditions, and then treated with AlamarBlue (Invitrogen). The fluorescence values were measured at Ex530 and Em590 every 2, 4, and 6 hours (PerkinElmer Victor x4). The obtained fluorescence values were analyzed with Prism4 (GraphPad) to determine the EC50 value. Each experiment was repeated three times."}, "[3]": {"test_system": "MDA-MB-468", "test": "AlamarBlue cell growth inhibition, MDA-MB-468", "type": "cell-based", "conditions": "TNBC, MDA-MB-468, 4 days", "method": "as §1"}, "[4]": {"test_system": "MDA-MB-231", "test": "AlamarBlue cell growth inhibition, MDA-MB-231", "type": "cell-based", "conditions": "TNBC, MDA-MB-231, 4 days", "method": "as §1"}, "[5]": {"test_system": "MDA-MB-231 ITGA KO", "test": "AlamarBlue cell growth inhibition, ITGA3 knockout negative control line", "type": "cell-based", "conditions": "breast cancer cell line with ITGA3 subunit knocked out", "method": "MDA-MB-231 cells with ITGA3 gene knockout were generated as follows. sgRNAs targeting exon 17 ([…]) of the ITGA3 gene were subcloned using the CRISPR-Cas9-2A-Puro V2.0 (Addgene) system. MDA-MB-231 cells were transfected with CRISPR-Cas9/sgRNA and cultured at 37°C, 5% CO2 for 72 hours. Afterwards, puromycin, the selection marker for the CRISPR-Cas9 vector, was added at a concentration of 250 ng/mL and selected for 18 days. Then, the target protein knockout efficiency was measured using flow cytometry (FACS calibur, FACS Aria, BD Biosciences), and knockout cells were isolated. MDA-MB-231 cells with ITGA3 knockout, i.e., MDA-MB-231/ITGA3 KO cell lines, were analyzed by flow cytometry using 3 µg/mL PS4 antibody and anti-human Fc-gamma specific Alexa Fluor-647 (1:800 dilution, Jackson ImmunoResearch Laboratories Inc.). In addition, MDA-MB-231/ITGA3 KO cell lysate (30 µg) was separated by SDS-PAGE and analyzed by Western blot using anti-ITGA3 (Antibodies-online) and anti-mouse Fc-gamma specific-HRP. Sample loading was compared using anti-beta-actin.\nFirst, an appropriate number of cells (3x10^3 to 1x10^4 cells) for each cancer cell line were dispensed into each well of a 96-well plate and cultured for 24 hours at 37°C, 5% CO2, and then the medium was replaced with fresh growth medium. […] The fluorescence values were measured at Ex530 and Em590 every 2, 4, and 6 hours (PerkinElmer Victor x4). […]"}, "[6]": {"test_system": "MDA-MB-453", "test": "AlamarBlue cell growth inhibition, MDA-MB-453", "type": "cell-based", "conditions": "TNBC, MDA-MB-453, 4 days", "method": "as §1"}, "[7]": {"test_system": "Panc-1", "test": "AlamarBlue cell growth inhibition, Panc-1", "type": "cell-based", "conditions": "Pancreatic, Panc-1, 4 days", "method": "as §1"}, "[8]": {"test_system": "Aspc-1", "test": "AlamarBlue cell growth inhibition, Aspc-1", "type": "cell-based", "conditions": "Pancreatic, Aspc-1, 4 days", "method": "as §1"}, "[9]": {"test_system": "MKN45", "test": "AlamarBlue cell growth inhibition, MKN45", "type": "cell-based", "conditions": "Stomach, MKN45, 4 days", "method": "as §1"}, "[10]": {"test_system": "A549", "test": "AlamarBlue cell growth inhibition, A549", "type": "cell-based", "conditions": "Lung, A549, 4 days", "method": "as §1"}, "[11]": {"test_system": "UMUC-3", "test": "AlamarBlue cell growth inhibition, UMUC-3", "type": "cell-based", "conditions": "bladder, UMUC-3, 4 days", "method": "as §1"}, "[12]": {"test_system": "CoCaB1", "test": "AlamarBlue cell growth inhibition, CoCaB1", "type": "cell-based", "conditions": "bladder, CoCaB1, 4 days", "method": "as §1"}, "[13]": {"test_system": "SW780", "test": "AlamarBlue cell growth inhibition, SW780", "type": "cell-based", "conditions": "bladder, SW780, 4 days", "method": "as §1"}, "[14]": {"test_system": "SCaBER", "test": "AlamarBlue cell growth inhibition, SCaBER", "type": "cell-based", "conditions": "bladder, 4 days", "method": "as §1"}, "[15]": {"test_system": "MDA-MB-231 cells", "test": "Triple-negative breast cancer xenograft efficacy", "type": "in vivo, mice", "conditions": "MDA-MB-231 xenograft", "method": "Triple-negative breast cancer (TNBC) MDA-MB-231 cells (2x10^6 cells) were mixed with Matrigel at a 1:1 (v/v) ratio and injected subcutaneously into BALB/c nude or NOD/SCID mice (Nara Bio). When the tumor volume reached 100 mm^3, the PS4-vcMMAE antibody-drug conjugate was administered intraperitoneally at 5 mg/kg or 10 mg/kg once every 5 days for a total of 5 times. 2-3 mice were used in each group. All animal experiments were conducted in accordance with protocols approved by the Institutional Animal Care and Use Committee (IACUC) of Kangwon National University (KW-210728-3)."}, "[16]": {"test_system": "PANC-1", "test": "Pancreatic cancer xenograft efficacy", "type": "in vivo, mice", "conditions": "PANC-1 xenograft, NOD/SCID", "method": "PANC-1 (3 × 10^6) cancer cells were subcutaneously injected into NOD/SCID (female 5-week-old) mice. When the tumor volume reached […], the PS4-vcMMAE conjugate was intraperitoneally injected at 5 mg/kg or 10 mg/kg once every 5 days for a total of 3 times. The control group was treated with PBS, and the efficacy was evaluated with 3-4 mice per group. After the experiment, the tumors were excised, and the size of the tumor tissues in each experimental group was compared. All animal experiments were performed in accordance with the protocol approved by the Institutional Animal Care and Use Committee (IACUC) of Kangwon National University (KW-210728-3)."}}, "note": "Several values for one entry are separate records, joined by “and”; a condition that tells them apart may be missing. Identical values can stand only once."}
{"molecule": "B1", "values": [{"measurement": "Tm", "setting": "[1]", "value": "64.67±0.24", "unit": "°C"}, {"measurement": "IC50", "setting": "[2]", "value": "134 ± 43.4", "unit": "nM"}, {"measurement": "Maximum (% inhibition)", "setting": "[2]", "value": "79.6±11.3", "unit": "%"}, {"measurement": "Maximum (% inhibition)", "setting": "[3]", "value": "89.88±2.5", "unit": "%"}, {"measurement": "IC50", "setting": "[4]", "value": "0.77 ± 0.63", "unit": "nM"}, {"measurement": "Maximum (% inhibition)", "setting": "[4]", "value": "77.97±2.03", "unit": "%"}, {"measurement": "anticancer efficacy", "setting": "[5]", "value": "no anticancer efficacy was observed"}, {"measurement": "IC50", "setting": "[6]", "value": "9.79 nM and 18.8 nM"}, {"measurement": "Maximum (% inhibition)", "setting": "[6]", "value": "96.2±0.36% and 87.9±0.61%"}, {"measurement": "IC50", "setting": "[7]", "value": "2.7 ± 1.21", "unit": "nM"}, {"measurement": "Maximum (% inhibition)", "setting": "[7]", "value": "73.78±2.18", "unit": "%"}, {"measurement": "Maximum (% inhibition)", "setting": "[8]", "value": "51.78±25.44", "unit": "%"}, {"measurement": "IC50", "setting": "[9]", "value": "14.1 ± 4.52", "unit": "nM"}, {"measurement": "Maximum (% inhibition)", "setting": "[9]", "value": "55.65±6.45", "unit": "%"}, {"measurement": "IC50", "setting": "[10]", "value": "5.22 ± 2.17", "unit": "nM"}, {"measurement": "Maximum (% inhibition)", "setting": "[10]", "value": "77.32±1.02", "unit": "%"}, {"measurement": "IC50", "setting": "[11]", "value": "2.1 ± 1.2", "unit": "nM"}, {"measurement": "Maximum (% inhibition)", "setting": "[11]", "value": "90.75±4.02", "unit": "%"}, {"measurement": "IC50", "setting": "[12]", "value": "2.21 ± 1.4", "unit": "nM"}, {"measurement": "Maximum (% inhibition)", "setting": "[12]", "value": "95.48±2.44", "unit": "%"}, {"measurement": "IC50", "setting": "[13]", "value": "1.78 ± 1.05", "unit": "nM"}, {"measurement": "Maximum (% inhibition)", "setting": "[13]", "value": "90.43±2.32", "unit": "%"}, {"measurement": "IC50", "setting": "[14]", "value": "1.88 ± 0.79", "unit": "nM"}, {"measurement": "Maximum (% inhibition)", "setting": "[14]", "value": "89.71±0.61", "unit": "%"}, {"measurement": "size and weight of the extracted tumor tissue reduced", "setting": "[15]; BALB/c nude or NOD/SCID mice, intraperitoneally 5 mg/kg or 10 mg/kg once every 5 days, 5 times, vs control group", "value": "approximately 55%"}, {"measurement": "tumor size compared to the time of drug administration", "setting": "[15]; NOD/SCID, 10 mg/kg", "value": "no significant difference"}, {"measurement": "tumor growth", "setting": "[15]; intraperitoneally 5 mg/kg or 10 mg/kg once every 5 days, 5 times, vs control group", "value": "inhibited in a PS4-MMAE dose-dependent manner"}, {"measurement": "tumor size reduced", "setting": "[16]; 10 mg/kg", "value": "at least 60%"}, {"measurement": "tumor growth", "setting": "[16]; intraperitoneally 5 mg/kg or 10 mg/kg once every 5 days, 3 times, vs control group (PBS)", "value": "inhibited in a PS4-MMAE dose-dependent manner"}]}
